Data reported in patent US20180371461, “[…], NUCLEIC ACID MOLECULES, POLYNUCLEOTIDES, […] ANTIBODIES COMPOSITIONS FOR […] PRRS VIRUSES AND […] PRRS VIRUS INFECTION” (AEROVIRUS TECHNOLOGIES INC., published 2018).

T1: PRRSV type 1 (Lelystad) M-S-S-GP5 disulfide-linked heterodimer peptide complex (Porcine reproductive and respiratory …, UniProt Q04565;Q04569)
T1 chain 1: MGGLDDFCNDPIAAQ
T1 chain 2: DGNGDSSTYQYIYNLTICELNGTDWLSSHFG

T2: PRRSV type 2 M(1-16)-S-S-GP5(31-61) disulfide-linked heterodimer peptide complex (Porcine reproductive and respiratory …)
T2 chain 1: MGSSLDDFCHDSTAPQ
T2 chain 2: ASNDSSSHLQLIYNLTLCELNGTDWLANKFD

B1: PEU-424 (ssDNA)
DNA: GGGCGACCCTGAAGAGGATGTTGATAGAGCGCCGACCACACACGCACGAAACGGTGAAAGCCGTAGGTTGCCC
B2: PEU-499 (ssDNA)
DNA: GGGCGACCCTGAAGAGTACACACGGGACACACACACACTCACTAGACGAAACGGTGAAAGCCGTAGGTTGCCC
B3: A508 (CoocSeq8) (ssDNA)
DNA: GGGCGACCCTGAAGAGACTGGTGAGTTAATGTTTTTTCTTAGCCTTGTATCGAAACGGTGAAAGCCGTAGGTTGCCC
B4: A507 (CoocSeq7_HistoSeq14) (ssDNA)
DNA: GGGCGACCCTGAAGAGGTTTGCATATTATAGTTATAGGAGGTGTGTAATGGACGAAACGGTGAAAGCCGTAGGTTGCCC
B5: PEU-852 (ssDNA)
DNA: GGGCGACCCTGAAGAGGACACTGCACGTACACAACGAGGATGAACACGAAACGGTGAAAGCCGTAGGTTGCCC
B6: PEU-842 (ssDNA)
DNA: GGGCGACCCTGAAGAGGACCAGAAGCACGGACCACACACAGCGTATCGAAACGGTGAAAGCCGTAGGTTGCCC
B7: PEU-962 (ssDNA)
DNA: GGGCGACCCTGAAGAGGATAGACAATAGCACACCACGCCCCTGCCACGAAACGGTGAAAGCCGTAGGTTGCCC
B8: A505 (CoocSeq5) (ssDNA)
DNA: GGGCGACCCTGAAGAGTTTGTAATCTGCGATTTTAAAGTTGAGTCGTCGCGAAACGGTGAAAGCCGTAGGTTGCCC

Columns and labels:
[1] = system: PRRSV LHVA-93-3 virion, M/GP5 surface complex (Porcine reproductive and respiratory syndrome virus type 2); test: cell_activity; details: protection of MARC-145 cells, 500 pmole aptamer, MTT assay; also reduces lung titre in swine
[2] = system: PRRSV NVSL virion, M/GP5 surface complex (Porcine reproductive and respiratory syndrome virus type 2); test: cell_activity; details: protection of MARC-145 cells, 500 pmole aptamer, MTT assay
[3] = molecular target: T1, PRRSV type 1 (Lelystad) M-S-S-GP5 …; test: ELONA; type 1 complex; details: protein: synthetic
[4] = molecular target: T2, PRRSV type 2 M(1-16)-S-S-GP5(31-61) …; test: ELONA; streptavidin plate, PBS-T, 37 C; details: protein: synthetic, tags: His-labelled (Ni-NTA captured), synthetic glycosylated peptide complex, disulfide M Cys9-GP5 Cys48
[5] = label: biotin (reverse screening ELISA)

Molecule | binding result [3] | other results
GGGCGACCCTGAAGAGTTTGTAATCTGCGATTTTAAAGTTGAGTCGTCGCGAAACGGTGAAAGCCGTAGGTTGCCC [A505 (CoocSeq5)] | – | activity [1]: 60%; activity [2]: 70%
B1 | binds | –
B2 | binds | –
B3 | – | binding result [4, 5]: binds
B4 | – | binding result [4, 5]: binds
B5 | binds | –
B6 | binds | –
B7 | binds | –
B8 | – | binding result ([4]; label: 5' biotin (reverse screening ELISA)): binds
